Data set [1] concerns the target T1, human SEPT2 with a TEV-cleavable N-terminal His6-tag (human, UniProt Q15019 1-361).
T1 sequence: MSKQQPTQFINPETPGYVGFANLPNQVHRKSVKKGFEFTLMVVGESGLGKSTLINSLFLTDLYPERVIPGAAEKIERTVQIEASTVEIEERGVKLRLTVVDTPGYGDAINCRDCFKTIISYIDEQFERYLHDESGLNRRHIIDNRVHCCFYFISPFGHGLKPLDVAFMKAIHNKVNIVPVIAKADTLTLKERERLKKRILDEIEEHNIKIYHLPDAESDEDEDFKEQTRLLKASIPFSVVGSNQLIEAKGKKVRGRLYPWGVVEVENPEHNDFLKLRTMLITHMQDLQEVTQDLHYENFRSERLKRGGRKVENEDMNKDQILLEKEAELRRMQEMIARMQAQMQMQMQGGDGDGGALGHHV

Data set [2] concerns the molecule itself. Put plainly: negative-stain single-particle electron microscopy.

For orientation: stoichiometry N means the number of molecules, sites or subunits per partner or assembly.

B1: human SEPT6 (natural protein)
chain: MAATDIARQVGEGCRTVPLAGHVGFDSLPDQLVNKSVSQGFCFNILCVGETGLGKSTLMDTLFNTKFEGEPATHTQPGVQLQSNTYDLQESNVRLKLTIVSTVGFGDQINKEDSYKPIVEFIDAQFEAYLQEELKIRRVLHTYHDSRIHVCLYFIAPTGHSLKSLDLVTMKKLDSKVNIIPIIAKADAISKSELTKFKIKITSELVSNGVQIYQFPTDDESVAEINGTMNAHLPFAVIGSTEELKIGNKMMRARQYPWGTVQVENEAHCDFVKLREMLIRVNMEDLREQTHTRHYELYRRCKLEEMGFKDTDPDSKPFSLQETYEAKRNEFLGELQKKEEEMRQMFVQRVKEKEAELKEAEKELHEKFDRLKKLHQDEKKKLEDKKKSLDDEVNAFKQRKTAAELLQSQGSQAGGSQTLKRDKEKKN
Take B1: the “stoichiometry N” value in data set [1] worked out at 1.

B2: human SEPT9_i3 with a noncleavable C-terminal Strep-tag-II (as in the mammalian octamers-9_i3) (natural protein)
chain: MERDRISALKRSFEVEEVETPNSTPPRRVQTPLLRATVASSTQKFQDLGVKNSEPSARHVDSLSQRSPKASLRRVELSGPKAAEPVSRRTELSIDISSKQVENAGAIGPSRFGLKRAEVLGHKTPEPAPRRTEITIVKPQESAHRRMEPPASKVPEVPTAPATDAAPKRVEIQMPKPAEAPTAPSPAQTLENSEPAPVSQLQSRLEPKPQPPVAEATPRSQEATEAAPSCVGDMADTPRDAGLKQAPASRNEKAPVDFGYVGIDSILEQMRRKAMKQGFEFNIMVVGQSGLGKSTLINTLFKSKISRKSVQPTSEERIPKTIEIKSITHDIEEKGVRMKLTVIDTPGFGDHINNENCWQPIMKFINDQYEKYLQEEVNINRKKRIPDTRVHCCLYFIPATGHSLRPLDIEFMKRLSKVVNIVPVIAKADTLTLEERVHFKQRITADLLSNGIDVYPQKEFDEDSEDRLVNEKFREMIPFAVVGSDHEYQVNGKRILGRKTKWGTIEVENTTHCEFAYLRDLLIRTHMQNIKDITSSIHFEAYRVKRLNEGSSAMANGVEEKEPEAPEM
On to B2, for which, in data set [2], the binding result is on record as “binds”.
